Assay results as given in patent publication US20260242478A1 (published 2026).
Where no end group is shown, it is not given here.

B1: Phage-3135 (peptide)
peptide: HQLMCRPAWMCEGF
modifications: cysteine pairing not given here; also: fused to phage pIII, orientation and linker not given here
B2: Phage-3141 (peptide)
peptide: YERVCEPLWMCTGF
modifications: cysteine pairing not given here; also: fused to phage pIII, orientation and linker not given here
B3: Phage-3128 (peptide)
peptide: LELACKPEWMCVGF
modifications: cysteine pairing not given here; also: fused to phage pIII, orientation and linker not given here
B4: Phage-3130 (peptide)
peptide: SVGYCVPSWMCSGF
modifications: cysteine pairing not given here; also: fused to phage pIII, orientation and linker not given here
B5: Phage-3140 (peptide)
peptide: IDTICRPSWMCLGF
modifications: cysteine pairing not given here; also: fused to phage pIII, orientation and linker not given here
B6: Phage-3142 (peptide)
peptide: AGVYCTPMWMCTGF
modifications: cysteine pairing not given here; also: fused to phage pIII, orientation and linker not given here
B7: Phage-3146 (peptide)
peptide: GPIMCQPRWMCEGF
modifications: cysteine pairing not given here; also: fused to phage pIII, orientation and linker not given here
notes: Clonal phage of the Peptide-180 library, tested as crude supernatant; not shown: fused to pIII of the bacteriophage
B8: Phage-3151 (peptide)
peptide: FPRLCEPLWMCKGF
modifications: cysteine pairing not given here; also: fused to phage pIII, orientation and linker not given here
notes: as for B7
B9: Phage-3127 (peptide)
peptide: LDKRCVPVWMCEGF
modifications: cysteine pairing not given here; also: fused to phage pIII, orientation and linker not given here
B10: Phage-3148 (peptide)
peptide: AEYMCIPSWMCHGM
modifications: cysteine pairing not given here; also: fused to phage pIII, orientation and linker not given here
notes: as for B7
B11: Phage-3137 (peptide)
peptide: IVPKCQPSWMCFGF
modifications: cysteine pairing not given here; also: fused to phage pIII, orientation and linker not given here
B12: Phage-3150 (peptide)
peptide: DAPLCKPQWMCSGF
modifications: cysteine pairing not given here; also: fused to phage pIII, orientation and linker not given here
notes: as for B7
B13: Phage-3143 (peptide)
peptide: SVPLCIPEWMCVGF
modifications: cysteine pairing not given here; also: fused to phage pIII, orientation and linker not given here
notes: as for B7
B14: Phage-3147 (peptide)
peptide: FEMFCIPAWMCSGL
modifications: cysteine pairing not given here; also: fused to phage pIII, orientation and linker not given here
notes: as for B7
B15: Phage-3145 (peptide)
peptide: IERSCTPSWMCHGF
modifications: cysteine pairing not given here; also: fused to phage pIII, orientation and linker not given here
notes: as for B7
B16: Phage-3136 (peptide)
peptide: VVQICKPSWMCEGF
modifications: cysteine pairing not given here; also: fused to phage pIII, orientation and linker not given here
B17: Phage-3139 (peptide)
peptide: TAPVCVPWWMCEGF
modifications: cysteine pairing not given here; also: fused to phage pIII, orientation and linker not given here
B18: Phage-3149 (peptide)
peptide: LLPACKPTWMCTGL
modifications: cysteine pairing not given here; also: fused to phage pIII, orientation and linker not given here
notes: as for B7
B19: Phage-3132 (peptide)
peptide: THIICKPAWMCDAW
modifications: cysteine pairing not given here; also: fused to phage pIII, orientation and linker not given here
B20: Phage-3138 (peptide)
peptide: DTRICKPEWMCMGM
modifications: cysteine pairing not given here; also: fused to phage pIII, orientation and linker not given here
B21: Phage-3144 (peptide)
peptide: HLPRCEPAWMCHGF
modifications: cysteine pairing not given here; also: fused to phage pIII, orientation and linker not given here
notes: as for B7
B22: Phage-3152 (peptide)
peptide: WDQWCVPKWMCQGF
modifications: cysteine pairing not given here; also: fused to phage pIII, orientation and linker not given here
notes: as for B7
B23: Phage-3131 (peptide)
peptide: DAVRCVPSWMCEGF
modifications: cysteine pairing not given here; also: fused to phage pIII, orientation and linker not given here
B24: Phage-3133 (peptide)
peptide: YERSCVPSWMCEGF
modifications: cysteine pairing not given here; also: fused to phage pIII, orientation and linker not given here
B25: Phage-3153 (peptide)
peptide: DMSLCKPPWMCFGF
modifications: cysteine pairing not given here; also: fused to phage pIII, orientation and linker not given here
notes: as for B7
B26: Phage-3129 (peptide)
peptide: GHQMCVPQWMCDAF
modifications: cysteine pairing not given here; also: fused to phage pIII, orientation and linker not given here
B27: Phage-3134 (peptide)
peptide: AERLCVPAWMCLNL
modifications: cysteine pairing not given here; also: fused to phage pIII, orientation and linker not given here

Tests used:
PSMA Fab (006 PSMA Fab) [1] = target: T1, PSMA Fab (006 PSMA Fab); assay: clonal phage ELISA; biotinylated PSMA Fab on neutravidin plate, blocking buffer alone; anti-M13 HRP detection;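 also: crude clonal phage supernatants added without washing to wells pretreated with blocking buffer with or without PSMA antigen, short incubation, then washed before detecting bound phage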
T1 construct: also called Anti-PSMA Fab; anti-PSMA Fab
Description: (§1) Clonal phage were harvested as crude supernatants and screened via standard ELISAs. […] Prior to the addition of clonal phage. wells were incubated with blocking buffer and PSMA antigen or blocking buffer alone. Without washing or aspirating, clonal phage supernatants were then added to the wells and incubated for a short time. Wells were then washed followed by detection of bound phage using a horse radish conjugated anti-M13 antibody.

PSMA Fab (006 PSMA Fab) [2] = target: T1, PSMA Fab (006 PSMA Fab); assay: clonal phage ELISA; biotinylated PSMA Fab on neutravidin plate pre-incubated with PSMA antigen as competitor; anti-M13 HRP detection;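 also: crude clonal phage supernatants briefly incubated on wells preloaded with PSMA antigen in blocking buffer, or buffer only as control, bound phage detected with HRP-conjugated anti-M13 antibody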
Description: as §1

006 PSMA Fab [3] = target: T2, 006 PSMA Fab (biotinylated (site not stated)); assay: clonal phage ELISA, biotinylated PSMA Fab on neutravidin plate, anti-M13 HRP detection, no PSMA antigen
T2 construct: Biotinylated PSMA Fab captured on neutravidin coated plates in the clonal phage ELISA; also called Anti-PSMA Fab; anti-PSMA Fab

006 PSMA Fab [4] = target: T2, 006 PSMA Fab; assay: clonal phage ELISA, biotinylated PSMA Fab on neutravidin plate, anti-M13 HRP detection; competitor PSMA antigen
Description: as §1

PSMA Fab [5] = target: T3, PSMA Fab; assay: clonal phage ELISA on captured PSMA Fab pre-incubated with PSMA antigen as competitor, anti-M13 HRP detection;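 also: crude clonal phage supernatants tested by ELISA, wells first treated with blocking buffer plus PSMA antigen, bound phage read out via HRP-linked anti-M13 antibody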
T3 construct: also called Anti-PSMA Fab; 006 PSMA Fab
Description: as §1

PSMA Fab [6] = target: T3, PSMA Fab; assay: clonal phage ELISA on biotinylated PSMA Fab captured on neutravidin plates, anti-M13 HRP detection, blocking buffer alone
Description: as §1

Binder	Phage binding ELISA signal, Anti-PSMA Fab (PSMA Fab (006 PSMA Fab) [1])	Phage binding ELISA signal, Anti-PSMA Fab in presence of PSMA (PSMA Fab (006 PSMA Fab) [2])	phage binding ELISA signal (Anti-PSMA Fab, PSMA antigen present) (PSMA Fab [5])	Phage binding ELISA signal, Anti-PSMA Fab (PSMA Fab [6])	also measured
B1	2.06	0.118			
B2	2.05	0.0802			
B3					phage binding ELISA signal (006 PSMA Fab [3]): 2.06; phage binding ELISA signal with PSMA antigen present (006 PSMA Fab [4]): 0.0801
B4	2.06	0.075			
B5	2.05	0.0788			
B6	2.05	0.0775			
B7			0.0807	2.05	
B8			0.0987	2.04	
B9					phage binding ELISA signal (006 PSMA Fab [3]): 2.06; phage binding ELISA signal with PSMA antigen present (006 PSMA Fab [4]): 0.0828
B10			0.0861	2.05	
B11	2.06	0.0991			
B12			0.0854	2.04	
B13			0.106	2.05	
B14			0.0821	2.05	
B15			0.072	2.05	
B16	2.06	0.102			
B17	2.05	0.0757			
B18			0.135	2.04	
B19	2.06	0.0691			
B20	2.06	0.107			
B21			0.0904	2.05	
B22			0.197	2.04	
B23	2.06	0.1			
B24	2.06	0.066			
B25			0.0792	2.04	
B26	2.06	0.0607			
B27	2.06	0.0543			
